Results on one molecule are retold here after patent US20240117061A1.

Assay [1] has as its target recombinant cynomolgus monkey BCMA-huFc (cynomolgus monkey; human). In words: ELISA, hybridoma supernatant, dilution, immobilized cynoBCMA-huFc. A general note: In an ELISA, binding on a coated surface is turned into a signal by an enzyme label.
Assay [2] has the same target. In words: ELISA, hybridoma supernatant, dilution 1:9, immobilized cynoBCMA-huFc.
Assay [3] has the same target. The assay can be described thus: ELISA, hybridoma supernatant, dilution 1:27, immobilized cynoBCMA-huFc.
Assay [4] shares this target. The assay can be described thus: ELISA, hybridoma supernatant, dilution 1:81, immobilized cynoBCMA-huFc.
The target is the same in assay [5]. In words: ELISA, hybridoma supernatant, dilution 1:243, immobilized cynoBCMA-huFc.
Assay [6] shares this target. In words: ELISA, hybridoma supernatant, dilution 1:729, immobilized cynoBCMA-huFc.
The target is the same in assay [7]. The assay can be described thus: ELISA, hybridoma supernatant, stock solution, immobilized cynoBCMA-huFc.
Assay [8] has the same target. The assay can be described thus: ELISA, hybridoma supernatant, dilution 1:2187, immobilized cynoBCMA-huFc.

Sequence of recombinant cynomolgus monkey BCMA-huFc (cynomolgus monkey; human) (chain, as listed by the source limits assumed): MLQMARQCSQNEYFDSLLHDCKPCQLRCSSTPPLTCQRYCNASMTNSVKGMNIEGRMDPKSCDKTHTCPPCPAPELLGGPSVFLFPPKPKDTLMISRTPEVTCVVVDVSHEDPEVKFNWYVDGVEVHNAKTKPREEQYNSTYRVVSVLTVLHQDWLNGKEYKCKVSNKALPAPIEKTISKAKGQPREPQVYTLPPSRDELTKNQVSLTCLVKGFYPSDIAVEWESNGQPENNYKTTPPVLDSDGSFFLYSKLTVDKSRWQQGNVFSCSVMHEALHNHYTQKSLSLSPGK

B1: mouse monoclonal antibody 202E11H10E3 (antibody, V domains shown)
VH: QVQLQQSDAELVKPGTSVKISCKVSGYTFTDHTIHWMKQRPEQGLEWIGYIYPRNGNTKYNEKFKGKATLTADKSSSTAYMHLNSLTSEDSAVYFCARYDYDGYFDVWGTGTTVTVSS
VL: DVVMTQTPLSLPVSLGDQASISCRSSQSHVHSDGHTYLHWYLQKPGQSPELLIYKVSNRFSGVPDRFSGSGSGTDFTLKISRVEAEDLGVYFCSQNTHFPWTFGGGTKLEIK
As to B1, the ELISA result in assay [1] came to 0.31; in assay [2] it was 0.18; in assay [3], 0.15; in assay [4] it was 0.14; in assay [5] it was 0.15; in assay [6], 0.13. The values for the ELISA result in assay [7] and in assay [8] were 0.75 and 0.12, respectively.
